In data set [1] the target is T1, Targeting Protein for XKlp2 (TPX2), full length, wild type (Xenopus laevis, UniProt Q6NUF4 1-716).
T1 sequence (looked up): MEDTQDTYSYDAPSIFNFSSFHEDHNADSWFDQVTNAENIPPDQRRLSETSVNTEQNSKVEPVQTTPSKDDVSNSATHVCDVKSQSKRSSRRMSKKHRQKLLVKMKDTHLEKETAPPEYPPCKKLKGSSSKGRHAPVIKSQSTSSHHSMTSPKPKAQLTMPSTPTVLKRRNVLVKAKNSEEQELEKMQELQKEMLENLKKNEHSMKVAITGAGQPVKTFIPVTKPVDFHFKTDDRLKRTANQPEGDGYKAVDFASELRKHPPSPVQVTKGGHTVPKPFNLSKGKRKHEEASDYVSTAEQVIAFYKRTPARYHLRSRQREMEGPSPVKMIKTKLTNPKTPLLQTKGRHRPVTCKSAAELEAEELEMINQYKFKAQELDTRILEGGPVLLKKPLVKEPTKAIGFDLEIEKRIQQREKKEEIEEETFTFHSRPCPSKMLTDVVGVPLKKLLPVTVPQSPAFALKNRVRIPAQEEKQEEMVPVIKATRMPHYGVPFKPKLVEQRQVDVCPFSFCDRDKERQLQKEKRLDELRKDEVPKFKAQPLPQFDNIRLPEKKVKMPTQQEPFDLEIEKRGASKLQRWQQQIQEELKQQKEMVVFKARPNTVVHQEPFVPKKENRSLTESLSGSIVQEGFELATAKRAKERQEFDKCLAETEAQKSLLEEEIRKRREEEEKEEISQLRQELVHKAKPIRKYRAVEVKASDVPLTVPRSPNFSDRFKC
Kind of data set: cell-based or functional assay.

The target in data set [2] is T1, Targeting Protein for XKlp2 (TPX2), …. Kind of data set: SEC-MALS; Superdex-200-increase 3.2/300; importin-αΔIBB alone and TPX2 (2 μM) with importin-αΔIBB (20 μM). Conditions: both partners purified.
Data set [3] deals with the molecule itself. The data set is described as above.
In data set [4] the target is triple-mutant TPX2 (3M-TPX2) (Xenopus laevis, UniProt Q6NUF4 1-716, K123A | K124A | K126A | K284A | R285A | K327A | K330A). Kind of data set: BLI; Octet (ForteBio); TPX2 attached to sensors, importin concentration varied; normalized amplitudes; apparent Kd. Conditions: both partners purified.
For data set [5], the target named is T1, Targeting Protein for XKlp2 (TPX2), …. The description is as above. Conditions: both partners purified.
For a further data set, the target named is T2, TPX2 construct 1 to 178 (Xenopus laevis, UniProt Q6NUF4 1-178).
T2 construct: TPX2, Xenopus laevis, amino acids 1-178; also called wild-type-1-178 TPX2 construct; TPX2 1 to 178; source: recombinant, purified to >95% purity
T2 sequence (looked up): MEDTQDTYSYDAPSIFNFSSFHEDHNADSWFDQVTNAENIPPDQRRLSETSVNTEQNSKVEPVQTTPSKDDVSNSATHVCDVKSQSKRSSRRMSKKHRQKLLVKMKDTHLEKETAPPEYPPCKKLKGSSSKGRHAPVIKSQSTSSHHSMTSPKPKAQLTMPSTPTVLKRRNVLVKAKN
Described as above. Conditions: both partners purified.

For a further data set, the target named is T3, TPX2 construct 1 to 260 (Xenopus laevis, UniProt Q6NUF4 1-260).
T3 construct: TPX2, Xenopus laevis, amino acids 1-260; also called TPX2 1 to 260; source: recombinant, purified to >95% purity
T3 sequence (looked up): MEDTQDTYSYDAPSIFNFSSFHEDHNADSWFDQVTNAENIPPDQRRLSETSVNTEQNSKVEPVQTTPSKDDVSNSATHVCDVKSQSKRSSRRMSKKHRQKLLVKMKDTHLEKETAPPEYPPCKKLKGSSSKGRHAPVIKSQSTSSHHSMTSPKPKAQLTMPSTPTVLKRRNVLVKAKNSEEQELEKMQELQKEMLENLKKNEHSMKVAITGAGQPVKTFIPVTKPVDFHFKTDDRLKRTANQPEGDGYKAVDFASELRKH
Described as above. Conditions: both partners purified.

Data set [6] has as its target T4, TPX2 1 to 178 with the KKLK motif mutated (K123A, K124A, K126A) (Xenopus laevis, UniProt Q6NUF4 1-178, K123A | K124A | K126A).
T4 construct: TPX2, Xenopus laevis, amino acids 1-178 with the lysines of KKLK (123-126) mutated to alanines; also called TPX2 1 to 178 (K123A, K124A, K126A); source: recombinant, purified to >95% purity
T4 sequence (looked up): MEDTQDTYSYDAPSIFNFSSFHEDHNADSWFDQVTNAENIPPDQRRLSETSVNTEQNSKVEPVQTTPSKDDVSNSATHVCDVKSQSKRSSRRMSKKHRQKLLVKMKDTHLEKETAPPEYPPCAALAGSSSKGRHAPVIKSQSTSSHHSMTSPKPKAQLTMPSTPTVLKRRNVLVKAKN
The description is as above. Conditions: both partners purified.

B1: importin-αΔIBB (truncated importin-α without the importin-β-binding domain) (domain or fragment)
chain: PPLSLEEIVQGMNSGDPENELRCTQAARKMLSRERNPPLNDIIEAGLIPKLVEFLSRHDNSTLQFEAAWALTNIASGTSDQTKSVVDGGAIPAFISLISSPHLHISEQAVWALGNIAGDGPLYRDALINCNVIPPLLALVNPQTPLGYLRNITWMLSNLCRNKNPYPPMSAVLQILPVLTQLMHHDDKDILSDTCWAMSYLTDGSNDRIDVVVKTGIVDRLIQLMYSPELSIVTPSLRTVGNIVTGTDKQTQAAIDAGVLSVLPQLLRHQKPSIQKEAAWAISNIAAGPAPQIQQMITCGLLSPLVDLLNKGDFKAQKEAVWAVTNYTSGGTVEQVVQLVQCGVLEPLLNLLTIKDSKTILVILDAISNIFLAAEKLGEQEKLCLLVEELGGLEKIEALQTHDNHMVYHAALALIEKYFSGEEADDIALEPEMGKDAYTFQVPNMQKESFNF
Regarding B1, the “inhibition of TPX2 condensation (fluorescence microscopy; TPX2 1 μM, importin-αΔIBB 1x to 20x; enhancement at lower concentrations)” value in data set [1] was about 20 fold excess. The “stoichiometry N” value is > 1 importin-αΔIBB:TPX2 in data set [2] and 2 in data set [3]. Besides, the Kd is 410 ± 70 nM in data set [4], 61 ± 10 nM in data set [5], 15 ± 3 nM with TPX2 construct 1 to 178 and 20 ± 4 nM with TPX2 construct 1 to 260. Also, the “fold loss of binding against the wild-type 1-178 construct” value in data set [6] came to 10 fold.

The values are drawn from article PMC8390506, “Interaction of spindle assembly factor TPX2 with importins-α/β inhibits protein phase separation” (The Journal of Biological Chemistry, 2021).
